How the values were obtained:
[1] = target: rFGF2 antigen (recombinant fibroblast growth factor 2) (UniProt P09038); assay: SPR kinetic affinity assay
[2] = target: T1, rFGF2 antigen (recombinant fibroblast growth factor 2) (UniProt P09038 143-288, limits assumed); assay: SPR kinetic affinity assay
T1 construct: also called FGF2 protein
T1 sequence (P09038 143-288 limits assumed): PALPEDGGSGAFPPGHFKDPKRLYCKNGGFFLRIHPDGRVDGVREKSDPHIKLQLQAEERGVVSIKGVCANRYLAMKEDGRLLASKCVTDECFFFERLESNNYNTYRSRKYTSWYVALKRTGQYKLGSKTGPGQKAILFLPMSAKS

Sequence of rFGF2 antigen (recombinant fibroblast growth factor 2) (UniProt P09038) (P09038 143-288 limits assumed): as above

| Binder | Kd [1] | koff [1] | kon [1] | Kd [2] | koff [2] | kon [2] |
| --- | --- | --- | --- | --- | --- | --- |
| human anti-FGF2 antibody 32L98H (antibody, part only; not given: light chain 32L, human IgG1, V domains shown, part only) VH: QITLKESGPTLVKPTQTLTLTCTFSGFSLSTSGVGVGWIRQPPGEALEWLAVIHWNEANYYSPYLRSRLTITKDTSKNQMVLTVTNMDPVDTATYYCARGANSDSSGRLDAFDIWGQGTMVTVSS | 8.53 nM | 0.00326 s⁻¹ | 382000 M⁻¹ s⁻¹ |  |  |  |
| human anti-FGF2 antibody 62K98H (antibody, human IgG1, V domains shown, Human IgG1 format (AbVec vectors with human gamma1 HC and kappa LC constant regions)) VH: QITLKESGPTLVKPTQTLTLTCTFSGFSLSTSGVGVGWIRQPPGEALEWLAVIHWNEANYYSPYLRSRLTITKDTSKNQMVLTVTNMDPVDTATYYCARGANSDSSGRLDAFDIWGQGTMVTVSS VL: DVVMTQSPLSLPVTLGQPASISCRSSQSLIYSDGNTRLYWFHQRPGQSPRRLIYGVSNRDSGVPDRFSGSGSGTDFTLKISRVEAEDVGVYYCMQSTHWPHTFGQGTKLEIK |  |  |  | 9.1 nM | 0.00156 s⁻¹ | 171000 M⁻¹ s⁻¹ |
| human anti-FGF2 antibody 85L117H (antibody, human IgG1, V domains shown, Human IgG1 format (AbVec vectors with human gamma1 HC and lambda LC constant regions)) VH: QVQLVQSGAELKRPGSSVKVSCRASGDTFKNYAITWVRQAPGQGLEWVGGIDPLVGVPNYTHRFQGRVTITADEPTSTTYMEFRDLTSDDTAVYYCARGVRDQHWSYFDSWGQGTLVTVSS VL: QSVLTQPPSASGTPGQTVNISCSGATSNIGGGSVNWYQQLPGAAPRLLIHSDNERASGVPDRFSGSKSGTSASLAISGLQSEDEADYFCASWDDSLDGHVVFGGGTKVTVL |  |  |  | 17 nM | 0.000834 s⁻¹ | 49200 M⁻¹ s⁻¹ |
